# Results taken from PMC4222909, “The Porphyromonas gingivalis Ferric Uptake Regulator Orthologue Binds Hemin and Regulates Hemin-Responsive Biofilm Development” (PLoS ONE, 2014).
# Substitutions are numbered along the chain they refer to. Numbers in names are those of the source.
# T1: Zn(II)Har150 (Porphyromonas gingivalis ATCC 33277) (UniProt B2RKX7)
# T1 sequence: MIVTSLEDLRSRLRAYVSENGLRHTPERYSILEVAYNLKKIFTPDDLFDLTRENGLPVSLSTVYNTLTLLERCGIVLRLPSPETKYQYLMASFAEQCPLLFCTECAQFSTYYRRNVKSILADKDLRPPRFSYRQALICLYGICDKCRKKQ
# B1: Zn(II)Har150, recombinant P. gingivalis Har truncated by 16 amino acids at the C-terminus (domain or fragment)
# chain: T1 sequence
# notes: source: E. coli BL21(DE3), purified (GSTrap, on-column Factor Xa cleavage, cation exchange, size exclusion); not shown: GST, N-terminal, cleaved
# B2: Zn(II)Har, recombinant Porphyromonas gingivalis Har (heme associated regulator, Fur orthologue PGN_1503) (natural protein, Porphyromonas gingivalis ATCC 33277, UniProt B2RKX7 1-166, looked up)
# chain: MIVTSLEDLRSRLRAYVSENGLRHTPERYSILEVAYNLKKIFTPDDLFDLTRENGLPVSLSTVYNTLTLLERCGIVLRLPSPETKYQYLMASFAEQCPLLFCTECAQFSTYYRRNVKSILADKDLRPPRFSYRQALICLYGICDKCRKKQSALKKAADKAAPKKKK
# notes: Har (Fur family transcriptional regulator), P. gingivalis ATCC 33277, gene PGN_1503 (501 bp), full length; Factor Xa site (IEGR) immediately before the start of har; Measured mass of apo-Har 19157.46 Da fits the theoretical 19157.20 Da; also called PgHar; rHar; source: E. coli BL21(DE3), purified (GSTrap, on-column Factor Xa cleavage, cation exchange, size exclusion); not shown: GST, N-terminal, …
# B3: Zn(II)C97A, recombinant P. gingivalis Har with Cys97 substituted with Ala (natural protein)
# chain: B2 chain with C97A
# notes: also called HarC97A; source: E. coli BL21(DE3), purified (GSTrap, on-column Factor Xa cleavage, cation exchange, size exclusion); not shown: GST, N-terminal, cleaved
# Columns and labels:
# [1] = biological target: T1, Zn(II)Har150 (Porphyromonas gingivalis ATCC 33277); assay: EMSA
# [2] = biological target: T1, Zn(II)Har150 (Porphyromonas gingivalis ATCC 33277); assay: competition
# [3] = biological target: the molecule itself; assay: SEC
Molecule,binding [1],binding [2],stoichiometry N [3]
GGTGTTGATAACTCGGTCGCGCCTTGGTCGGCTTTCGTATAAGTGTCTGGAATGCAGTGGAATAGCGTTGTTTCCTTCGCTGTTTATATCTCAAGGTTATAACCATCTGAAAACAATATAGATACGATTCATCTGAATTATACTACACTTTTTGTCGATTGTTTTTTTACTCTTTTGTTTGAACCTTTGCTATCCCCAAAGGAGCAATGAACGACTGCTCTCAAAACGATATTTTTTTAG (double strand) [FAM-dnaA (PGN_0001) promoter],binds,,
GGTGTTGATAACTCGGTCGCGCCTTGGTCGGCTTTCGTATAAGTGTCTGGAATGCAGTGGAATAGCGTTGTTTCCTTCGCTGTTTATATCTCAAGGTTATAACCATCTGAAAACAATATAGATACGATTCATCTGAATTATACTACACTTTTTGTCGATTGTTTTTTTACTCTTTTGTTTGAACCTTTGCTATCCCCAAAGGAGCAATGAACGACTGCTCTCAAAACGATATTTTTTTAG (double strand) [dnaA (PGN_0001) promoter 240 bp],binds,binds,
B1,,,2
B2,,,2
B3,,,2
